Measured values as given in the supplement of paper PMC10724198.
± gives the standard deviation of the averaged measurements.

How the values were obtained:
[1] = system: Saccharomyces cerevisiae; experiment: protein stability index of tFT-peptide fusion (C-terminal peptide) (PSI (0-1 scale)); higher = more stable (slower turnover)
Procedure: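 MPS profiling in S. cerevisiae of the tFT-X12 degron library: putative degron peptides plus stable controls, 12 aa, fused to the C-terminus of a sfGFP-mCherry timer. Cells are FACS-sorted into 8 mCherry/sfGFP bins and deep-sequenced. PSI runs from 0 (unstable) to 1 (stable). Backgrounds are wild type, das1Δ and doa10Δ at 30 °C, and wild type, das1Δ, cdc34-1 and cdc53-1 at 37 °C; 2-3 technical replicates each.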

[2] = system: Saccharomyces cerevisiae; experiment: as above; details: genetic background: wild type; temperature: 30 C
[3] = genetic background: cdc34-1, temperature: 37 C
[4] = genetic background: cdc53-1, temperature: 37 C
[5] = genetic background: das1 deletion, temperature: 30 C
[6] = genetic background: das1 deletion, temperature: 37 C
[7] = genetic background: doa10 deletion, temperature: 30 C
[8] = genetic background: wild type, temperature: 30 C
[9] = genetic background: wild type, temperature: 37 C
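Note: PSI is a weighted mean of sequencing reads over stability bins, variants kept only with over 10 reads, mCherry proximal and sfGFP distal, peptide attached via GGGS linker.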

Sequence | protein stability index [1, 3] | protein stability index [1, 4] | protein stability index [1, 5] | protein stability index [1, 6] | protein stability index [1, 7] | protein stability index [1, 8] | protein stability index [1, 9] | protein stability index [2]
WVLSRAAFVFFF | 0.587 ± 0.04 | 0.612 ± 0.0096 | 0.473 ± 0.019 | 0.606 ± 0.011 | 0.322 ± 0.0078 | 0.337 ± 0.022 | 0.5201 ± 0.0035 | 0.44 ± 0.018
IFVFVSFPSCVL | 0.603 ± 0.062 | 0.644 ± 0.022 | 0.56 ± 0.041 | 0.627 ± 0.0096 | 0.35 ± 0.0042 | 0.399 ± 0.026 | 0.568 ± 0.03 | 0.468 ± 0.012
FLDYLLFIFFFF | 0.431 ± 0.054 | 0.519 ± 0.041 | 0.419 ± 0.032 | 0.522 ± 0.0072 | 0.464 ± 0.0094 | 0.392 ± 0.037 | 0.473 ± 0.039 | 0.415 ± 0.008
TTATLSFAICAV | 0.412 ± 0.01 | 0.455 ± 0.012 | 0.315 ± 0.022 | 0.473 ± 0.0063 | 0.27 ± 0.0051 | 0.325 ± 0.022 | 0.452 ± 0.014 | 0.4276 ± 0.0029
GLLLRLRNLFCM | 0.759 ± 0.087 | 0.8043 ± 0.0034 | 0.748 ± 0.019 | 0.851 ± 0.028 | 0.387 ± 0.026 | 0.391 ± 0.02 | 0.547 ± 0.05 | 0.522 ± 0.042
GVQFSVKWVKLG | 0.519 ± 0.022 | 0.7 ± 0.0093 | 0.616 ± 0.014 | 0.734 ± 0.0015 | 0.106 ± 0.011 | 0.109 ± 0.025 | 0.18 ± 0.0065 | 0.225 ± 0.019
VICSLFRYIMRL | 0.414 ± 0.021 | 0.518 ± 0.0071 | 0.571 ± 0.013 | 0.6336 ± 0.0037 | 0.18 ± 0.019 | 0.132 ± 0.0062 | 0.134 ± 0.043 | 0.199 ± 0.0043
MALAVRVVLCGA | 0.0507 ± 0.0085 | 0.0673 ± 0.038 | 0.165 ± 0.026 | 0.192 ± 0.0025 | 0.116 ± 0.029 | 0.153 ± 0.0088 | 0.168 ± 0.0051 | 0.236 ± 0.034
SFFSQAIPILAA | 0.0333 ± 0.0079 | 0.039 ± 0.0039 | 0.152 ± 0.027 | 0.115 ± 0.015 | 0.129 ± 0.0039 | 0.15 ± 0.021 | 0.0837 ± 0.023 | 0.225 ± 0.072
CLEHLVYCRLAS | 0.435 ± 0.046 | 0.624 ± 0.06 | 0.555 ± 0.015 | 0.6774 ± 0.0062 | 0.0612 ± 0.0023 | 0.0694 ± 0.025 | 0.0634 ± 0.0027 | 0.131 ± 0.022
GDLEFCCLIIVL | 0.4401 ± 0.0033 | 0.556 ± 0.072 | 0.302 ± 0.018 | 0.5755 ± 0.005 | 0.27 ± 0.042 | 0.306 ± 0.032 | 0.5052 ± 0.0033 | 0.321 ± 0.0098
PPVPRLLPVLAP | 0.525 ± 0.038 | 0.503 ± 0.015 | 0.379 ± 0.025 | 0.546 ± 0.02 | 0.348 ± 0.0045 | 0.385 ± 0.025 | 0.506 ± 0.0077 | 0.474 ± 0.0057
GGRSLYAILCAV | 0.3216 ± 0.0018 | 0.393 ± 0.018 | 0.277 ± 0.028 | 0.4669 ± 0.0034 | 0.166 ± 0.021 | 0.197 ± 0.027 | 0.261 ± 0.011 | 0.321 ± 0.03
LRVVLVEWMCVV | 0.248 ± 0.017 | 0.295 ± 0.036 | 0.274 ± 0.037 | 0.418 ± 0.0054 | 0.172 ± 0.011 | 0.21 ± 0.023 | 0.358 ± 0.011 | 0.33 ± 0.03
VLRACCDWGFLV | 0.53 ± 0.0055 | 0.696 ± 0.039 | 0.655 ± 0.017 | 0.77382 ± 0.00011 | 0.108 ± 0.0016 | 0.108 ± 0.03 | 0.163 ± 0.024 | 0.161 ± 0.02
FCCLIGYIWYGW | 0.45071 ± 0.00045 | 0.5083 ± 0.00082 | 0.392 ± 0.041 | 0.527 ± 0.013 | 0.344 ± 0.0071 | 0.363 ± 0.011 | 0.514 ± 0.039 | 0.488 ± 0.019
SVVRCWVLLGVA | 0.121 ± 0.047 | 0.157 ± 0.028 | 0.198 ± 0.013 | 0.303 ± 0.0057 | 0.135 ± 0.0021 | 0.164 ± 0.026 | 0.2377 ± 0.0011 | 0.276 ± 0.024
NFFIQFHNLLFP | 0.754 ± 0.017 | 0.765 ± 0.037 | 0.664 ± 0.0089 | 0.769 ± 0.022 | 0.653 ± 0.017 | 0.6712 ± 0.0036 | 0.774 ± 0.027 | 0.718 ± 0.0086
YVSLPFVVWWFC | 0.443 ± 0.029 | 0.533 ± 0.016 | 0.414 ± 0.026 | 0.591 ± 0.0081 | 0.1839 ± 0.0011 | 0.198 ± 0.014 | 0.375 ± 0.0063 | 0.309 ± 0.033
ESFIKFALYIVN | 0.557 ± 0.052 | 0.604 ± 0.0067 | 0.435 ± 0.023 | 0.621 ± 0.014 | 0.348 ± 0.013 | 0.358 ± 0.036 | 0.5099 ± 0.00084 | 0.419 ± 0.0082
IFFYQLYVDRLC | 0.227 ± 0.05 | 0.292 ± 0.0067 | 0.229 ± 0.035 | 0.412 ± 0.011 | 0.0857 ± 0.012 | 0.0803 ± 0.01 | 0.0746 ± 0.0054 | 0.151 ± 0.059
NYFRPWLIFHKC | 0.684 ± 0.021 | 0.749 ± 0.012 | 0.632 ± 0.05 | 0.742 ± 0.014 | 0.2644 ± 0.00051 | 0.309 ± 0.023 | 0.547 ± 0.0037 | 0.38 ± 0.059
LRFYLLTPPSPA | 0.59 ± 0.022 | 0.6288 ± 0.0054 | 0.481 ± 0.024 | 0.631 ± 0.0089 | 0.469 ± 0.017 | 0.494 ± 0.02 | 0.586 ± 0.029 | 0.54 ± 0.061
LSGVLFSLIRFY | 0.587 ± 0.06 | 0.636 ± 0.011 | 0.517 ± 0.03 | 0.696 ± 0.008 | 0.274 ± 0.015 | 0.287 ± 0.032 | 0.495 ± 0.015 | 0.383 ± 0.036
GFSVFSHSVWVR | 0.133 ± 0.044 | 0.0797 ± 0.0059 | 0.19 ± 0.032 | 0.271 ± 0.012 | 0.437 ± 0.016 | 0.194 ± 0.011 | 0.238 ± 0.013 | 0.313 ± 0.014
WFLVFLRVGDGP | 0.539 ± 0.01 | 0.566 ± 0.0072 | 0.362 ± 0.027 | 0.6 ± 0.0068 | 0.353 ± 0.039 | 0.378 ± 0.023 | 0.545 ± 0.016 | 0.474 ± 0.01
NLFVFLSYLFNV | 0.603 ± 0.051 | 0.66 ± 0.0075 | 0.563 ± 0.013 | 0.7168 ± 0.0052 | 0.336 ± 0.035 | 0.34 ± 0.014 | 0.484 ± 0.013 | 0.422 ± 0.022
VVVFRWTCWLLV | 0.0544 ± 0.005 | 0.144 ± 0.023 | 0.0835 ± 0.013 | 0.245 ± 0.0041 | 0.0257 ± 0.014 | 0.0385 ± 0.011 | 0.06333 ± 0.00029 | 0.0581 ± 0.028
LPSLPPPPPPPP | 0.675 ± 0.071 | 0.717 ± 0.018 | 0.673 ± 0.044 | 0.732 ± 0.024 | 0.654 ± 0.025 | 0.647 ± 0.016 | 0.687 ± 0.0092 | 0.498 ± 0.039
PCLPLTPMWTLF | 0.713 ± 0.034 | 0.789 ± 0.021 | 0.678 ± 0.0076 | 0.7793 ± 0.0028 | 0.3716 ± 0.0014 | 0.42 ± 0.022 | 0.611 ± 0.018 | 0.493 ± 0.0072
